From US20210355237A1 (RIKEN, published 2021)

What was measured:
[1] = molecular target: heated (56° C., 15 minutes) Der f 2-IgE antibody in clinical-case serum of allergic dogs (canine); assay: Der f 2-IgE ELISA, serum after heating, specimen containing pathogenic IgE antibody
[2] = molecular target: T1, Peptide (-4) with 6×His tag and GS linker (canine); assay: ELISA, His-tagged peptide captured by anti-His tag antibody, biotinylated 6C12
T1 construct: 4 amino acids deleted from the N terminal of Peptide-full
T1 peptide: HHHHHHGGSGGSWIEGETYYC

[3] = molecular target: T2, Peptide (-1C) with 6×His tag and GS linker (canine); assay: as above
T2 construct: 1 amino acid deleted from the C terminal
T2 peptide: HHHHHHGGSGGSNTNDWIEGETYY

[4] = molecular target: T3, Peptide (-2C) with 6×His tag and GS linker (canine); assay: as above
T3 construct: 2 amino acids deleted from the C terminal
T3 peptide: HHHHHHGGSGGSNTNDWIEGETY

[5] = molecular target: T4, Peptide (-3C) with 6×His tag and GS linker (canine); assay: as above
T4 construct: 3 amino acids deleted from the C terminal
T4 peptide: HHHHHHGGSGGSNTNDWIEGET

[6] = molecular target: T5, Peptide (-4C) with 6×His tag and GS linker (canine); assay: as above
T5 construct: 4 amino acids deleted from the C terminal
T5 peptide: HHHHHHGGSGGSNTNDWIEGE

[7] = molecular target: T6, Peptide (-5C) with 6×His tag and GS linker (canine); assay: as above
T6 construct: 5 amino acids deleted from the C terminal
T6 peptide: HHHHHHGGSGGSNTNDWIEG

[8] = molecular target: non-heated Der f 2-IgE antibody in clinical-case serum of allergic dogs (canine); assay: Der f 2-IgE ELISA, serum before heating, specimen containing pathogenic IgE antibody
[9] = molecular target: heated (56° C.) Der f 2-IgE antibody in experimental canine serum (canine); assay: Der f 2-IgE ELISA, serum after heating, specimen containing non-pathogenic IgE antibody
[10] = molecular target: non-heated Der f 2-IgE antibody in experimental canine serum (beagles sensitized with Der f 2 and alum) (canine); assay: Der f 2-IgE ELISA, serum before heating, specimen containing non-pathogenic IgE antibody
[11] = molecular target: feline serum IgE antibody of allergy cases, after heating (feline); assay: IgE ELISA of feline serum on immobilised Dermatophagoides Farinae allergen, 6C12 detection; Allergy case, Cat 1
[12] = molecular target: feline serum IgE antibody of allergy cases, after heating (feline); assay: IgE ELISA of feline serum on immobilised Dermatophagoides Farinae allergen, 6C12 detection; Allergy case, Cat 2
[13] = molecular target: feline serum IgE antibody of allergy cases, after heating (feline); assay: IgE ELISA of feline serum on immobilised Dermatophagoides Farinae allergen, 6C12 detection; Allergy case, Cat 3

B1: 6C12 (monoclonal antibody produced from hybridoma clone 6C12, mouse IgG1κ) (antibody, V domains shown)
VH: EVQLVESGGGLVQPKGSLKLSCAASGFNFNAYVMNWVRQAPGKGLEWVSRIRSKSNNYATYYADSVKDRFTISRDDSESMLYLQMNNLKTEDTAMYYCVRPDYYGGSPFAYWGQGTLVTVSA
VL: QIVLTQSPAIMSASPGEKVTISCSASSSVSYMYWYQQKPGSSPKPWIYRTSNLASGVPARFGGSGSGTSYSLTISSMEAEDAATYYCQQYHSYPPTFGVGTKLELK
notes: Mouse IgG1κ purified from ascites on Protein G; used biotin-labelled (ELISA, flow cytometry) or FITC-labelled (RBL-2H3); 129-174); also called 6C12 antibody; purified 6C12
Q: For B1, which Der f 2-IgE concentration detected by 6C12 [1] is on record?
A: 848 ng/mL

Q: Does B1 bind [2]?
A: no binding

Q: Does B1 bind [3]?
A: no binding

Q: Does B1 bind [4]?
A: no binding

Q: Does B1 bind [5]?
A: no binding

Q: Does B1 bind [6]?
A: no binding

Q: Does B1 bind [7]?
A: no binding

Q: What about the Der f 2-IgE concentration detected by 6C12 [8] of the same binder?
A: 0 ng/mL

Q: What about the Der f 2-IgE concentration detected by 6C12 [9] of the same binder?
A: 1050 ng/mL

Q: What about the Der f 2-IgE concentration detected by 6C12 [10] of the same binder?
A: 1050 ng/mL

Q: What about the IgE level detected by 6C12, After heating [11] of the same binder?
A: 89 ng/mL

Q: What about the IgE level detected by 6C12, After heating [12] of the same binder?
A: 34 ng/mL

Q: And the IgE level detected by 6C12, After heating [13]?
A: 91 ng/mL
